Drawing on patent publication US20220233638A1, this text covers residual rate of SCRB^KD (Scribble knockdown) MDCK cells in mixed culture with normal MDCK cells, 24 hr for one substance.

The target of the assay is canine LILRB3 (ENSCAFG00000028453) on normal MDCK cells (dog). The experiment in a line: cell-based or functional assay.
Sequence of canine LILRB3 (ENSCAFG00000028453) on normal MDCK cells (dog) (chain, as listed by the source limits assumed, form in doubt): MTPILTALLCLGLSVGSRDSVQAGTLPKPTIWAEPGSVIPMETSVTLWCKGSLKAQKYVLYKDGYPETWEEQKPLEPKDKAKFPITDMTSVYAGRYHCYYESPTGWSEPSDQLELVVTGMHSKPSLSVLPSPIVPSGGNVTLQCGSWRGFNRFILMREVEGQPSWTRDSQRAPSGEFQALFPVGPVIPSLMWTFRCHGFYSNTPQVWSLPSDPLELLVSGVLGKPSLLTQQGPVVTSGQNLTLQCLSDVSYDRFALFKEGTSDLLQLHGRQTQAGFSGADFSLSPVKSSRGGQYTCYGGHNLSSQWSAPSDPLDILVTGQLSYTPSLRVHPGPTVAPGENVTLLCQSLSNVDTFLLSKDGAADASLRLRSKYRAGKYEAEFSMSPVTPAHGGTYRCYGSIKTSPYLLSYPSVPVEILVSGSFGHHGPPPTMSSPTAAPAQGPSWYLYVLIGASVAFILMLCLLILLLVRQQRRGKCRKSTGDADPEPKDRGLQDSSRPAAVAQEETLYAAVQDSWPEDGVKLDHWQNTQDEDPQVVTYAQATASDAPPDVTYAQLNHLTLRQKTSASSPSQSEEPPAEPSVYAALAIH

“recombinant protein DLA88-α3 (from UniProt P18466 207-299) (ligand)” displayed a residual rate of SCRB^KD (Scribble knockdown) MDCK cells in mixed culture with normal MDCK cells, 24 hr of 20%.
